Experimental data: publication PMC10500825, “TGFβ1-RCN3-TGFBR1 loop facilitates pulmonary fibrosis by orchestrating fibroblast activation” (Respiratory Research, 2023)

Target: T1, recombinant human EZH2 protein, biotinylated (human, UniProt Q15910 1-746, biotin (Biotinylation Kit, Thermo Scientific 21329))
T1 construct: Enhancer of zeste homolog 2 (EZH2), human recombinant protein, Origene TP302054; check the vendor's sheet; also called rhEZH2; source: bought: Origene (TP302054), biotinylated and desalted
Experiment: BLI; OctetRED; his-tagged rhRcn3 (5 µg/ml) immobilised on NTA biosensors; biotinylated rhEZH2 at 262.3, 131.1, 65.56 and 32.78 µg/ml in binding buffer; association and dissociation for 10 min at 25 °C
Settings: both partners purified

T1 sequence (Q15910 whole entry): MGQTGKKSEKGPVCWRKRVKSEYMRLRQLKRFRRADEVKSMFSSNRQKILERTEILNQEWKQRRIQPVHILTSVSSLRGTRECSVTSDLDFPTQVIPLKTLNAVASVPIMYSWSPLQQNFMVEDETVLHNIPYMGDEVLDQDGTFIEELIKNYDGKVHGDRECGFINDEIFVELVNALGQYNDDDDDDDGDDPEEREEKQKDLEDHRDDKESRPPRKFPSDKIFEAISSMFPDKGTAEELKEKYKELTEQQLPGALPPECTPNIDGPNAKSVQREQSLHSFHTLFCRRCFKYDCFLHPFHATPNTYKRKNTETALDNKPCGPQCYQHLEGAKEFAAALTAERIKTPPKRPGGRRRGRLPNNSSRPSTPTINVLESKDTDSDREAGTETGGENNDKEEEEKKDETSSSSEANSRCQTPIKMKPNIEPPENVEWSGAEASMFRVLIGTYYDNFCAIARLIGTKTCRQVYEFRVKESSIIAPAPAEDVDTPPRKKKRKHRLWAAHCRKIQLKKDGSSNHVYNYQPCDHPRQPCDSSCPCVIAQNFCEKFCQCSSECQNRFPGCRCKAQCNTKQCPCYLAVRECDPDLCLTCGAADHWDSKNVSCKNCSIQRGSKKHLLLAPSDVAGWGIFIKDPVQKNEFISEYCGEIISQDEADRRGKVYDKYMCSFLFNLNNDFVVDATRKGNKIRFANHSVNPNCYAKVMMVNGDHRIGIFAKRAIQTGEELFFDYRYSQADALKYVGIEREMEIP

Kd: 1540 nM
B1: recombinant human Rcn3 with his-tag (natural protein, UniProt Q96D15 21-328, looked up)
chain: KPSPDAGPHGQGRVHQAAPLSDAPHDDAHGNFQYDHEAFLGREVAKEFDQLTPEESQARLGRIVDRMDRAGDGDGWVSLAELRAWIAHTQQRHIRDSVSAAWDTYDTDRDGRVGWEELRNATYGHYAPGEEFHDVEDAETYKKMLARDERRFRVADQDGDSMATREELTAFLHPEEFPHMRDIVIAETLEDLDRNKDGYVQVEEYIADLYSAEPGEEEPAWVQTERQQFRDFRDLNKDGHLDGSEVGHWVLPPAQDQPLVEANHLLHESDTDKDGRLSKAEILGNWNMFVGSQATNYGEDLTRHHDEL
notes: Reticulocalbin 3 (RCN3), human recombinant protein, Abcam ab276552; Construct limits are those of the vendor's product; also called rhRcn3; hrRcn3; source: bought: Abcam (ab276552)
